Experimental data published in patent US20140271651A1 (AbbVie / Abbott, published 2014).

T1: GP73-hFc (human GP73 amino acids 63 to 400 fused at the C-terminus to human IgG1 Fc) (human)
T1 construct: Expressed in HEK293F, CHO or HepG2 cells; the host is named under assay; also called HEK expressed GP73-hFc; CHO expressed GP73-hFc
T1 chain: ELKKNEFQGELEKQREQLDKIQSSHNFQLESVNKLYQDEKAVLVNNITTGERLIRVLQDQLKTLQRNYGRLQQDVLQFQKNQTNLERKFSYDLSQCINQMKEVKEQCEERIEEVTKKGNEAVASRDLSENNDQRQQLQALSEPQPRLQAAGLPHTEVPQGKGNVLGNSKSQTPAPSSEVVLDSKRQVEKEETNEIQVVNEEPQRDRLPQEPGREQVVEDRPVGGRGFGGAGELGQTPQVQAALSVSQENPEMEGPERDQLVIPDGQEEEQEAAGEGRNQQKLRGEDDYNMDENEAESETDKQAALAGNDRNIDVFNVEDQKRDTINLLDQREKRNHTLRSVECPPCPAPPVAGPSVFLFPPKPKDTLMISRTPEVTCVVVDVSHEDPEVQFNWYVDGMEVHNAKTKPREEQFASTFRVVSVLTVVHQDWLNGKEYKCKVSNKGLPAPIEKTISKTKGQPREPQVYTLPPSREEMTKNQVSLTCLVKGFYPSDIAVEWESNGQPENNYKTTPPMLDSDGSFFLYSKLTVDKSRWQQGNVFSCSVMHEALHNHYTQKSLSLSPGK


Legend:
[1] = target: T1, GP73-hFc (human GP73 amino acids 63 to …); assay: EIA, supernatant mAb captured on sheep anti-mouse IgG Fc, GP73-hFc 200 ng/mL, biotin goat anti-GP73/streptavidin-HRPO; background 0.06
Method: (§1) Cell supernatant samples were analyzed for anti-GP73 antibodies by EIA. Sheep anti-mouse IgG Fc (Jackson Immunoresearch) was coated on 96 well micro-titer EIA plates at 1 μg/mL. After the capture reagent was coated on the solid phase, it was removed and the plates were blocked using a BSA/PBS block solution. The wells were washed with distilled water and cell supernatants were added to the blocked plates and allowed to incubate at room temperature for at least one hour. A mouse monoclonal antibody 14H4-23 (Drexel University) was used a positive control. The anti-mouse IgG Fc captured the anti-GP73 mouse antibody from the supernatant. Following the incubation, the supernatants were washed off using distilled water. An irrelevant mouse-human chimeric antibody was added to all wells and incubated at room temperature for 30 min to block any captured mouse antibodies that react with the human IgG Fc fusion protein linked to the GP73 antigen. The wells were washed with distilled water and GP73-hFc was added to the plates at 200 ng/mL and incubated for 30 min. Following this incubation, the antigen was washed from the plates using distilled water. Biotin labeled goat anti-GP73 was added to the plates at 200 ng/mL and incubated for 30 min at room temperature. The plates were washed and streptavidin-HRPO (Jackson Immunoresearch) (diluted to approximately 200 ng/mL) was added to the plates and allowed to incubate for 30 min. The plates were washed with distilled water and OPD substrate was used as the chromagen to generate signal. Plates were read at 492 nm and the results were analyzed.

[2] = target: T1, GP73-hFc (human GP73 amino acids 63 to …); assay: sandwich EIA, rabbit anti-GP73 coated 1 ug/mL, GP73-hFc 200 ng/mL, supernatant 1:125, HRP goat anti-mouse IgG Fc
Method: as §1
(§2) The 24 well cultures were then evaluated by EIA for their ability to form a sandwich with the rabbit anti-GP73 used as a capture reagent coated directly on the solid phase. The same EIA protocol previously described was used, except rabbit anti-GP73 antibody was coated at 1 μg/mL, the GP73-hFc was tested at 200 ng/mL, and a HRP labeled goat anti-mouse IgG FC antibody was used as the conjugate reagent to generate signal.

bovine serum albumin [3] = target: T2, bovine serum albumin (bovine, UniProt P02769 25-607); assay: sandwich EIA, rabbit anti-GP73 coated 1 ug/mL, BSA background, supernatant 1:125, HRP goat anti-mouse IgG Fc
T2 construct: also called BSA
Method: as §1, §2

bovine serum albumin [4] = target: T2, bovine serum albumin; assay: EIA, supernatant 1:25 captured on sheep anti-mouse IgG Fc, BSA in place of antigen
Method: as §1
Positive clones were expanded to 24 well plates in IMDM supplemented with 10% FBS and HT supplement. Following 5-14 days growth, the 24 well cultures were evaluated by EIA in the same manner as previously described, except the supernatant samples were titrated against GP73-hFc and BSA to eliminate non-specific protein binders. Once again the clones generating signal at least 3 times greater than background were considered positive and selected for further evaluation.

[5] = target: T1, GP73-hFc (human GP73 amino acids 63 to …); assay: SPR Biacore 2000, mAb captured on rabbit anti-mouse IgG, HEK GP73-hFc analyte 0.412-100 nM, 1:1 fit
Method: First, an approximately 13,000-15,000 RU rabbit anti-mouse IgG Capture Biosensor was created by amine-coupling rabbit anti-mouse IgG antibody (GE Healthcare) to a CM5 biosensor chip (GE Healthcare) via EDC/NHS/ethanolamine chemistry provided in an Amine Coupling Kit (GE Healthcare) after pre-treating the biosensor with duplicate injections of 100 mM HCl, 50 mM NaOH, and 0.1% SDS. Purified GP73 antibody and antigen (HEK GP73-hFc) were diluted into a running buffer (hereinafter “running buffer”) composed of HBS-EP buffer (GE Healthcare) supplemented with 0.1% BSA and 0.1% CM-Dextran. Each GP73 antibody was diluted to 1 μg/mL. The GP73-hFc antigen was diluted to concentrations of 0.412 to 100 nM using a 3-fold dilution series assuming an oligomeric molecular weight of 490 kDa (Abbott Laboratories).
The GP73-hFc antigen program was as follows. After equilibrating the rabbit anti-mouse IgG Capture Biosensor for 3 min at 5 μL/minute with running buffer, GP73 antibody (7-14 μL) was injected over individual flow cells with one flow cell being left blank as a reference flow cell. The flow cells were washed with running buffer for 3 min at a flow rate of 60 μL/min. 150 μL of HEK293 expressed GP73-hFc antigen at a random concentration was injected across the biosensor. The biosensor was subsequently re-equilibrated with running buffer for 5 min at a flow rate of 60 μL/minute. All biosensor surfaces were regenerated with one 30 μL injection of 10 mM glycine, pH 1.7 (GE Healthcare), at a flow rate of 10 μL/minute. All concentrations of HEK293 expressed antigen were tested in duplicate. The binding kinetics (association and dissociation) were monitored via sensorgrams during antigen injection and running buffer re-equilibration. The sensorgrams were double-referenced and fit to a 1:1 binding model using Scrubber 2.0 software (BioLogic Software Pty Ltd., Australia) to determine association and dissociation rates, as well as overall KD. Standard errors of determined values are reported in parentheses with respect to the smallest number place value.

T2 sequence (P02769 25-607 limits assumed): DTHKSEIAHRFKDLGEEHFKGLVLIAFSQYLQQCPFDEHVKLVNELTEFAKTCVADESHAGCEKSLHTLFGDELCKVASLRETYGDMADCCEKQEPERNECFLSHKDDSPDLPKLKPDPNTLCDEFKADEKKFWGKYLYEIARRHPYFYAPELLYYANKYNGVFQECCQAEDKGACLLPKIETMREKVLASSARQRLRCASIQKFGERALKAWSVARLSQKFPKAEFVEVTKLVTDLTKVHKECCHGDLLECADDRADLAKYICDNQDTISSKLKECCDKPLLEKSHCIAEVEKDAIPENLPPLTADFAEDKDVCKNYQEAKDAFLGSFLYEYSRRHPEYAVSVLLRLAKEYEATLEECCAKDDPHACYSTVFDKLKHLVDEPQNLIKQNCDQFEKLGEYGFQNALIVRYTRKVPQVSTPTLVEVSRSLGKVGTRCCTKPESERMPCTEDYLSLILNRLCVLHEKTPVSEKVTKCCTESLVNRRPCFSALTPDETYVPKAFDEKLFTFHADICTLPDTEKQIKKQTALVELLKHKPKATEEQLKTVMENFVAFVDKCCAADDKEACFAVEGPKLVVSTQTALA

OD (A492) [1] | GP73-hFc OD (A492) [2] | BSA Background OD (A492) (bovine serum albumin [3]) | BSA Background OD (A492) (bovine serum albumin [4]) | Kd [5] [nM] | kon [5] [M⁻¹ s⁻¹] | koff [5] [s⁻¹] | Binder
1.79 OD (A492) | 1.6 OD (A492) | 0.1 OD (A492) | 0.1 OD (A492) | ≤ 0.002 | 3.9e+06 | – | anti-GP73 monoclonal antibody 1B-4971 (antibody, V domains shown, Biotin labelled in some assays; also called mAb 1B-4971; 1B-4971-Bt) VH: QVQLQQSGPALVKPGASVKMSCKASGYTFTNYVIHWVKQKPGQGLERIGYIWPYNDGTKFNEKFKGKATLTSDKSSSTAYMELSSLTSEDSAVYYCSSQQLAYWGQGTTLTVSS VL: not shown
1.44 OD (A492) | 1.41 OD (A492) | 0.1 OD (A492) | 0.06 OD (A492) | 0.12 | 2.06e+06 | 0.00025 | anti-GP73 monoclonal antibody 1B-4863 (antibody, V domains shown, Biotin labelled in some assays; also called mAb 1B-4863; 1B-4863-Bt) VH: QVQLKESGPGLVAPSQSLSITCTVSGFSLTSYGVHWVRQSPGKGLEWLGVIWTGGSTNYNSALMSRLSISKDNSESQVFLKVNSLQTDDTGMYYCARDPGTDYFDYWGQGTTLTVSS VL: DIVMTQSHKFMSTSIGDRVSISCKASQDVSIDVSWYQQKPGQSPTLLIYSASYRYIGVPDRFTGSGSGTAFTFTISSVQAEDLAIYYCQQHFTTPLTFGAGTKLELKR
1.46 OD (A492) | 0.76 OD (A492) | 0.12 OD (A492) | 0.09 OD (A492) | 0.091 | 1.98e+06 | 0.00018 | anti-GP73 monoclonal antibody 1B-3440 (antibody, V domains shown, Biotin labelled in some assays; also called mAb 1B-3440; 1B-3440-Bt) VH: EVQLVETGGGLVQPKGSLKLSCAASGFTFNTNAMNWVRQAPGKGLEWVARIRTKRYNYTTFYADSVKDRFTISRDDSQSMLFLQMNNLKTEDTAMYYCVTGGTGTFDYWGQGTTLTVSS VL: EIVLTQSPTTMPASPGEKVTFTCSASSGISSNYLHWYQLKPGFSPKLLIYRTSNLASGVPARFSGGGSGTSYSLTIGTMEAEDVATYYCQQGFSIPLTFGAGTKLELKR
